Reference: patent US20220144943A1 (INTEGRITY BIOVENTURES, published 2022)
Residue numbers refer to the chain shown, from its start.

B1: HC1 (SEQ ID NO: 123) + LC2 (SEQ ID NO: 127) (antibody, human IgG4 S228P, kappa, V domains shown)
VH: QVQLVQSGAEVKKPGASVKVSCKASGYAFTNYLIEWVRQAPGQGLEWMGVINPGSGATNYNQKFQGRVTMTADKSISTAYMELSRLRSDDTAVYFCARRVYFDYWGQGTLVTVSS
VL: EIVMTQSPATLSLSPGERATLSCRASQSISDYLHWYQQKPGQAPRLLIKYASQSISGIPARFSGSGSGSDFTLTISSLEPEDFAVYYCQNGHSFPLTFGQGTKLEIKR
notes: also called HC1 + LC2
B2: HC1 (SEQ ID NO: 123) + LC1 (SEQ ID NO: 126) (antibody, human IgG4 S228P, kappa, V domains shown)
VH: B1 VH
VL: B1 VL with M4L, S56T, S69T
notes: also called HC1 + LC1
B3: HC2 (SEQ ID NO: 124) + LC3 (SEQ ID NO: 128) (antibody, human IgG4 S228P, kappa, V domains shown)
VH: B1 VH with M48I, M70L
VL: B1 VL with E1D, S69T, K103R
notes: also called HC2 + LC3
B4: HC1 (SEQ ID NO: 123) + LC3 (SEQ ID NO: 128) (antibody, human IgG4 S228P, kappa, V domains shown)
VH: B1 VH
VL: B1 VL with E1D, S69T, K103R
notes: also called HC1 + LC3
B5: HC3 (SEQ ID NO: 125) + LC2 (SEQ ID NO: 127) (antibody, human IgG4 S228P, kappa, V domains shown)
VH: B1 VH with I76T, A79V, R85S, D89E
VL: B1 VL
notes: also called HC3 + LC2
B6: HC3 (SEQ ID NO: 125) + LC1 (SEQ ID NO: 126) (antibody, human IgG4 S228P, kappa, V domains shown)
VH: B1 VH with I76T, A79V, R85S, D89E
VL: B1 VL with M4L, S56T, S69T
notes: also called HC3 + LC1
B7: HC2 (SEQ ID NO: 124) + LC2 (SEQ ID NO: 127) (antibody, human IgG4 S228P, kappa, V domains shown)
VH: B1 VH with M48I, M70L
VL: B1 VL
notes: also called HC2 + LC2
B8: HC3 (SEQ ID NO: 125) + LC3 (SEQ ID NO: 128) (antibody, human IgG4 S228P, kappa, V domains shown)
VH: B1 VH with I76T, A79V, R85S, D89E
VL: B1 VL with E1D, S69T, K103R
notes: also called HC3 + LC3
B9: HC2 (SEQ ID NO: 124) + LC1 (SEQ ID NO: 126) (antibody, human IgG4 S228P, kappa, V domains shown)
VH: B1 VH with M48I, M70L
VL: B1 VL with M4L, S56T, S69T
notes: also called HC2 + LC1

biological target: T1, CD47 (UniProt Q08722 19-139, limits assumed); assay: Octet HTX BLI, antibody on anti-human Fc biosensors, antigen in solution, 1:1 fit
T1 construct: also called Antigen; Cluster of differentiation 47
T1 sequence (Q08722 19-139 limits assumed): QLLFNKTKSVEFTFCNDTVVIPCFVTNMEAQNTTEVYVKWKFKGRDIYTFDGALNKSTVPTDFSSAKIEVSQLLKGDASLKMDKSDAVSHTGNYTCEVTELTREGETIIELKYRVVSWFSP
Protocol: The affinity of 9 humanized antibody combinations and the chimeric parental antibody was evaluated by Octet. Multi-concentration kinetic experiments were performed on the Octet HTX system (ForteBio). Anti-human Fc biosensors (ForteBio) were hydrated in sample diluent (0.1% BSA in PBS and 0.02% Tween 20) and preconditioned in pH 1.9 Glycine. Antigen was diluted by a 7 point, 3 fold serial dilution starting at 500 nM with sample diluent. Antibodies were diluted to 2 ug/mL with sample diluent and then immobilized onto anti-human Fc biosensors. After baselines were established for 30 seconds in sample diluent, the biosensors were moved to wells containing serially diluted antigen to measure the association and dissociation. […] The binding affinities were characterized by fitting the kinetic sensorgrams to a monovalent binding model (1:1 binding).

Binder | Kd [nM] | koff [s⁻¹] | kon [M⁻¹ s⁻¹]
B1 | 26 | 0.0041 | 160000
B2 | 15 | 0.0025 | 160000
B3 | 23 | 0.0034 | 150000
B4 | 15 | 0.0027 | 180000
B5 | 29 | 0.0036 | 120000
B6 | 12 | 0.0025 | 220000
B7 | 18 | 0.003 | 170000
B8 | 15 | 0.0025 | 170000
B9 | 22 | 0.0035 | 160000
